Reference: the DeepSol protein solubility set

Assay: soluble on expression in E. coli; label from the status in PepcDB or PDB records

Sequence | soluble on expression in E. coli
RKQAEEKLVASERFLRMLTNQLPGMVGYWDRDLRCRFANDAYKEWFGRSPEQIIGLTVQELMGEELFRLSEPYIRGALQGEPQNFERELVKPNGETGYTWAQYIPDMVNDKAIGFFVLISDVT | not soluble
MSSVKRSLKQEIVTQFHCSAAEGDIAKLTGILSHSPSLLNETSENGWTALMYAARNGHPEIVQFLLEKGCDRSIVNKSRQTALDIAVFWGYKHIANLLATAKGGKKPWFLTNEVEECENYFSKTLLDRKSEKRNNSDWLLAKESHPATVFILFSDLNPLVTLGGNKESFQQPEVRLCQLNYTDIKDYLAQPEKITLIFLGVELEIKDKLLNYAGEVPREEEDGLVAWFALGIDPIAAEEFKQRHENCYFLHPPMPALLQLKEKEAGVVAQARSVLAWHSRYKFCPTCGNATKIEEGGYKRLCLKEDCPSLNGVHNTSYPRVDPVVIMQVIHPDGTKCLLGRQKRFPPGMFTCLAGFIEPGETIEDAVRREVEEESGVKVGHVQYVACQPWPMPSSLMIGCLALAVSTEIKVDKNEIEDARWFTREQVLDVLTKGKQQAFFVPPSRAIAHQLIKHWIRINPNL | soluble
MSLSELSVLSAETAISFHEMDLEILKESQKALREEAGGKEEVEETVENPNPIVFIAVDDQNLPNGEEEDSFIFEKLQFRVKQVMENGTRRVYLSVQATTPAEWQLLVQLRIKTGCQSNILNVVDKDVYKFDSFSYPLNVEIQNSDVKFLKFEMRVLNLMYLDLPTFEEGDEVIEFDDGSRIRVHSNILSLLSDYLGKSEKEYASRTDCPAIKATCSEKEAFLELLYQAYPTRRPIFASFRRLTAGAVGYKCDNLIYQLSKHLIDYNYRPMTFLQRFQAAIENRLEPAISELAFRAALDGTWNQMIQSGFEPENFCGRQVYTKIVCPAILLARNAKPDATTLKKPENNLKFIELEEGDTTKSAILFRGTIFYINSGILAAHGKEMLCIGQNGEYIARYTAEFHRECARGDLIPGEVLVQLLTYMHPMGEVPHPDMIRACIVFAFDHGWNIVKENLENEFEPPITPDEYMSQLMFGDKFDLKNLLRVNIQRAESSCRELAEVLERHGKLKILKDRTHEGIMDRMCSGWGLNPMVNRLSTRFPTTFHHRTVNLQRGKAVVVGEGRAVDTLNSLASDHAFGEPTELIVVD | not soluble
MGSDKIHHHHHHMQRKKIGVALGSGAAKGWAHIGVLNALTEMGIEVDVVAGCSIGALVGAAYATNNLSSMDRWVRSFGYWDVIRLMDLSWQRGSLLRGDRVFNSVKHLLHTTQIEDCDIKYGVVTTNLSTGRELWLTEGDLHQAMRASCSMPGLLSPVRFNDYWLVDGAVVNPVPVSLARAMGADIVIAVDLQHDASLNHQDLLSIKPTASDIDAENVPQDWRSRIRERLLRGRRHPAESSPTAMEIMSTSIQILENRLKMTRMAGDPPDVLLQPHCPQIATLDFHRAQEAIDAGYKAVEKMRDELLPLAKEA | not soluble
MGYHTFDAGRADKLEDAQERYRSLSAEELCWALSASSDETVADLGSGTGFYTDDVAPAVDHVYAVDIQEAMHDYYRKKGVPDNVDLVTSAVDDLPFDTSSLDAAFSTMTYHEFASDGALREVARVLKPGGTFAIADWAASGSGRNGPPVDERFSAAEATDALRQHGFTVEFEAVRPETFLLVVSADLEHHHHHH | soluble
MGSDKIHHHHHHMKCSLGLEKCPDDTLRCFPKIEQPFGIVIFGASGDLTKRKLIPALNRLFEAGILPERFFVLGAARTKMDDKKFRSRFDANPDFLEHCSYISVDYQDPESFKQLKNTIETLIKRIDSSNLVFYLAVPPDLYIPILENLSKTGLNEKPARVVIEKPFGKDLESARRLEDTLQKYFQEDQIFRIDHYLGKETVQNILVFRFANFIFEEIWNNKFVDHVQITMAEDIGVEHRAGYFENVGLLRDIFQNHMLQILALIAMEPPSSFNGENFRNERVKLLRSIRPFPVEELESWIVRGQYGRGVVNGKEVPAYREEPGVAKDSNVETFVAMKLFIDNWRWSGVPFYLRSGKRLPKKITEVAVVFKKIPHSIFAGVPSDELEPNTIVFTLQPNEGISLEFQVKRPCPGMFPQLLSMDFRYEDYFGVKLPDAYERLLLDVILGDPTLFMRRDDLEVSWELLDPVLKAWENDPVRFSPYVYPAGTWGPREADLLIERDGRKWRKL | not soluble
